Measurements as given in US20060292565A1.

Molecular target: stimulatory G-protein, Gs

## Gly-389 beta-1 adrenergic receptor
  [35S]GTPγS binding in the presence of 10 µM isoproterenol: 770000 dpm/mg
